Data on 57 substances can be found in the Human Domainome abundance scans (Beltran et al. 2025).

± gives the uncertainty stated by the source.

This series is described as follows: abundance fitness (aPCA) (normalised: wild type 0, dead -1); higher = more abundant; growth selection in yeast, the domain comes from the species named. Conditions: Homo sapiens.
The substance “NEDD4-like E3 ubiquitin-protein ligase WWP2 T455A, O00308” displayed an abundance fitness of -0.659 ± 0.061. Then “NEDD4-like E3 ubiquitin-protein ligase WWP2 T455C, O00308”, with -0.339 ± 0.068; and “NEDD4-like E3 ubiquitin-protein ligase WWP2 T455E, O00308”, with -0.563 ± 0.18. With “NEDD4-like E3 ubiquitin-protein ligase WWP2 T455F, O00308” the figure was -0.912 ± 0.14. With “NEDD4-like E3 ubiquitin-protein ligase WWP2 T455G, O00308” the figure was -0.379 ± 0.045; with “NEDD4-like E3 ubiquitin-protein ligase WWP2 T455I, O00308”, -0.529 ± 0.08; with “NEDD4-like E3 ubiquitin-protein ligase WWP2 T455K, O00308”, -0.628 ± 0.082. “NEDD4-like E3 ubiquitin-protein ligase WWP2 T455L, O00308” had an abundance fitness of -0.258 ± 0.048. Then “NEDD4-like E3 ubiquitin-protein ligase WWP2 T455M, O00308”, with -0.415 ± 0.066; and “NEDD4-like E3 ubiquitin-protein ligase WWP2 T455N, O00308”, with -0.147 ± 0.073; and “NEDD4-like E3 ubiquitin-protein ligase WWP2 T455P, O00308”, with -0.968 ± 0.071.

For “NEDD4-like E3 ubiquitin-protein ligase WWP2 T455R, O00308”, the abundance fitness is -0.762 ± 0.038.

Regarding “NEDD4-like E3 ubiquitin-protein ligase WWP2 T455S, O00308”, the abundance fitness is -0.115 ± 0.041.

Consider “NEDD4-like E3 ubiquitin-protein ligase WWP2 T455V, O00308”, for which the abundance fitness is -0.678 ± 0.05. With “NEDD4-like E3 ubiquitin-protein ligase WWP2 T455W, O00308” the figure was -0.866 ± 0.1; with “NEDD4-like E3 ubiquitin-protein ligase WWP2 T455Y, O00308”, -0.62 ± 0.07; with “NEDD4-like E3 ubiquitin-protein ligase WWP2 T467A, O00308”, -0.098 ± 0.12. With “NEDD4-like E3 ubiquitin-protein ligase WWP2 T467I, O00308” the figure was -0.421 ± 0.26. As for “NEDD4-like E3 ubiquitin-protein ligase WWP2 T467R, O00308”, the abundance fitness was -0.405 ± 0.18. With “NEDD4-like E3 ubiquitin-protein ligase WWP2 T467S, O00308” the figure was -0.136 ± 0.056.

Turning to “NEDD4-like E3 ubiquitin-protein ligase WWP2 T469C, O00308”, the abundance fitness is -0.078 ± 0.057.

Turning to “NEDD4-like E3 ubiquitin-protein ligase WWP2 T469D, O00308”, the abundance fitness is -0.257 ± 0.055. “NEDD4-like E3 ubiquitin-protein ligase WWP2 T469E, O00308” yielded an abundance fitness of -0.228 ± 0.034.

Substance “NEDD4-like E3 ubiquitin-protein ligase WWP2 T469F, O00308” gave an abundance fitness of -0.215 ± 0.068. Then “NEDD4-like E3 ubiquitin-protein ligase WWP2 T469G, O00308”, with -0.346 ± 0.054; and “NEDD4-like E3 ubiquitin-protein ligase WWP2 T469H, O00308”, with -0.26 ± 0.036; and “NEDD4-like E3 ubiquitin-protein ligase WWP2 T469M, O00308”, with -0.096 ± 0.053. With “NEDD4-like E3 ubiquitin-protein ligase WWP2 T469N, O00308” the figure was -0.093 ± 0.072; with “NEDD4-like E3 ubiquitin-protein ligase WWP2 T469P, O00308”, -1.16 ± 0.13. Then “NEDD4-like E3 ubiquitin-protein ligase WWP2 T469Q, O00308”, with -0.196 ± 0.06; and “NEDD4-like E3 ubiquitin-protein ligase WWP2 T469R, O00308”, with -0.243 ± 0.038.

For the substance “NEDD4-like E3 ubiquitin-protein ligase WWP2 T469S, O00308”, the abundance fitness was -0.032 ± 0.041. With “NEDD4-like E3 ubiquitin-protein ligase WWP2 T469V, O00308” the figure was -0.151 ± 0.038. The substance “NEDD4-like E3 ubiquitin-protein ligase WWP2 T469W, O00308” showed an abundance fitness of -0.502 ± 0.036. With “NEDD4-like E3 ubiquitin-protein ligase WWP2 T469Y, O00308” the figure was -0.264 ± 0.062; with “NEDD4-like E3 ubiquitin-protein ligase WWP2 T470A, O00308”, -0.265 ± 0.035. Then “NEDD4-like E3 ubiquitin-protein ligase WWP2 T470C, O00308”, with -0.164 ± 0.069; and “NEDD4-like E3 ubiquitin-protein ligase WWP2 T470D, O00308”, with -0.653 ± 0.072; and “NEDD4-like E3 ubiquitin-protein ligase WWP2 T470E, O00308”, with -0.218 ± 0.068.

As for “NEDD4-like E3 ubiquitin-protein ligase WWP2 T470I, O00308”, the abundance fitness is -0.734 ± 0.15. With “NEDD4-like E3 ubiquitin-protein ligase WWP2 T470K, O00308”, the abundance fitness was -0.356 ± 0.039. Then “NEDD4-like E3 ubiquitin-protein ligase WWP2 T470L, O00308”, with -0.437 ± 0.04. With “NEDD4-like E3 ubiquitin-protein ligase WWP2 T470M, O00308”, the abundance fitness was -0.398 ± 0.048.

As for “NEDD4-like E3 ubiquitin-protein ligase WWP2 T470N, O00308”, the abundance fitness is -0.383 ± 0.11.

“NEDD4-like E3 ubiquitin-protein ligase WWP2 T470P, O00308” came in with an abundance fitness of -0.906 ± 0.14. Then “NEDD4-like E3 ubiquitin-protein ligase WWP2 T470Q, O00308”, with -0.42 ± 0.056; and “NEDD4-like E3 ubiquitin-protein ligase WWP2 T470R, O00308”, with -0.446 ± 0.044; and “NEDD4-like E3 ubiquitin-protein ligase WWP2 T470S, O00308”, with -0.234 ± 0.036. In turn, “NEDD4-like E3 ubiquitin-protein ligase WWP2 T470V, O00308” showed an abundance fitness of -0.263 ± 0.046. With “NEDD4-like E3 ubiquitin-protein ligase WWP2 T470Y, O00308” the figure was -0.772 ± 0.12; with “NEDD4-like E3 ubiquitin-protein ligase WWP2 T471A, O00308”, -0.725 ± 0.064. Then “NEDD4-like E3 ubiquitin-protein ligase WWP2 T471C, O00308”, with -0.59 ± 0.1; and “NEDD4-like E3 ubiquitin-protein ligase WWP2 T471D, O00308”, with -0.647 ± 0.057. Then “NEDD4-like E3 ubiquitin-protein ligase WWP2 T471E, O00308”, with -0.975 ± 0.11; and “NEDD4-like E3 ubiquitin-protein ligase WWP2 T471F, O00308”, with -0.556 ± 0.09; and “NEDD4-like E3 ubiquitin-protein ligase WWP2 T471G, O00308”, with -0.673 ± 0.052. Regarding “NEDD4-like E3 ubiquitin-protein ligase WWP2 T471H, O00308”, the abundance fitness was -0.259 ± 0.057.
